Experimental data taken from US20190016785A1 (published 2019).

Legend:
[1] = biological target: HBsAg ayw (hepatitis B virus); assay: ELISA
[2] = biological target: HBsAg adr; assay: ELISA

B1: HBC34 (antibody, V domains shown)
VH: ELQLVESGGGWVQPGGSQRLSCAASGRIFRSFYMSWVRQAPGKGLEWVATINQDGSEKLYVDSVKGRFTISRDNAKNSLFLQMNNLRVEDTAVYYCAAWSGNSGGMDVWGQGTTVSVSS
VL: SYELTQPPSVSVSPGQTVSIPCSGDKLGNKNVCWFQHKPGQSPVLVIYEVKYRPSGIPERFSGSNSGNTATLTISGTQAMDEAAYFCQTWDSTTVVFGGGTRLTVL
- EC50 [1]: 0.01 µg/mL
- EC50 [2]: 6 ng/mL
